Data from patent US20260070987A1.
Changes are numbered by the printed parent chain. In names and notes the source's numbering stands. Blank lines part the entries; values can stand above or below the binder they belong to.

Target: equine FcRn (large alpha subunit p51) in complex with equine beta-2-microglobulin (equine) (UniProt F6XZ61)
Experiment: SPR (Biacore), pH 6

UniProt F6XZ61, sequence (F6XZ61 entry or part of it, one chain of several): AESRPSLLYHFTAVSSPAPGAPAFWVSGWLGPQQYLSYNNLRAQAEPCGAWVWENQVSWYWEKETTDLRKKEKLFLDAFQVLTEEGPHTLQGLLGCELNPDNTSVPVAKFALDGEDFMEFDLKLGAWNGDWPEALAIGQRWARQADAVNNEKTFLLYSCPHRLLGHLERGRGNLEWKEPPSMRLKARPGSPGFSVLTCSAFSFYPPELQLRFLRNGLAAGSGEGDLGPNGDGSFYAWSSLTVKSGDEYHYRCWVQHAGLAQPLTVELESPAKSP

B1: equine IgG7 K311R mutant (antibody, part only; not given: variable domains, not shown: another chain or arm of the molecule)
constant: ASTTAPKVFPLASHSAATSGSTVALGCLVSSYFPEPVTVSWNSGALTSGVHTFPSVLQSSGLYSLSSMVTVPASSLKSQTYICNVAHPASSTKVDKKIVIKECGGCPTCPECLSVGPSVFIFPPKPKDVLMISRTPTVTCVVVDVGHDFPDVQFNWYVDGVETHTATTEPKQEQNNSTYRVVSILAIQHRDWLSGKEFKCKVNNQALPAPVQKTISKPTGQPREPQVYVLAPHRDELSKNKVSVTCLVKDFYPTDIDIEWKSNGQPEPETKYSTTPAQLDSDGSYFLYSKLTVETNRWQQGTTFTCAVMHEALHNHYTEKSVSKSPGK
Kd: 11.8 nM

B3: equine IgG7 K311T mutant (antibody, part only; not given: variable domains, not shown: another chain or arm of the molecule)
constant: B1 constant with R190T
Kd: 19.4 nM

B4: equine IgG7 K311V mutant (antibody, part only; not given: variable domains, not shown: another chain or arm of the molecule)
constant: B1 constant with R190V
Kd: 21.3 nM

B8: equine IgG7 A426D mutant (antibody, part only; not given: variable domains, not shown: another chain or arm of the molecule)
constant: B1 constant with R190K, A307D
Kd: 18.9 nM

B10: equine IgG7 A426F mutant (antibody, part only; not given: variable domains, not shown: another chain or arm of the molecule)
constant: B1 constant with R190K, A307F
Kd: 13.2 nM

B13: equine IgG7 A426I mutant (antibody, part only; not given: variable domains, not shown: another chain or arm of the molecule)
constant: B1 constant with R190K, A307I
Kd: 12.6 nM

B14: equine IgG7 A426K mutant (antibody, part only; not given: variable domains, not shown: another chain or arm of the molecule)
constant: B1 constant with R190K, A307K
Kd: 17.8 nM

B15: equine IgG7 A426L mutant (antibody, part only; not given: Variable domains, not shown: another chain or arm of the molecule)
constant: B1 constant with R190K, A307L
Kd: 15.6 nM

B16: equine IgG7 A426M mutant (antibody, part only; not given: variable domains, not shown: another chain or arm of the molecule)
constant: B1 constant with R190K, A307M
Kd: 22.7 nM

B18: equine IgG7 A426P mutant (antibody, part only; not given: variable domains, not shown: another chain or arm of the molecule)
constant: B1 constant with R190K, A307P
Kd: 23.2 nM

B19: equine IgG7 A426Q mutant (antibody, part only; not given: variable domains, not shown: another chain or arm of the molecule)
constant: B1 constant with R190K, A307Q
Kd: 18.6 nM

B21: equine IgG7 A426S mutant (antibody, part only; not given: variable domains, not shown: another chain or arm of the molecule)
constant: B1 constant with R190K, A307S
Kd: 40.4 nM

B22: equine IgG7 A426T mutant (antibody, part only; not given: Variable domains, not shown: another chain or arm of the molecule)
constant: B1 constant with R190K, A307T
Kd: 26.5 nM

B23: equine IgG7 A426V mutant (antibody, part only; not given: variable domains, not shown: another chain or arm of the molecule)
constant: B1 constant with R190K, A307V
Kd: 23.3 nM

Results, then the binder that gave them:

Kd: 27.6 nM
B2: equine IgG7 K311S mutant (antibody, part only; not given: variable domains, not shown: another chain or arm of the molecule)
constant: B1 constant with R190S

Kd: 22.1 nM
B5: equine IgG7 K311W mutant (antibody, part only; not given: variable domains, not shown: another chain or arm of the molecule)
constant: B1 constant with R190W

Kd: 18.9 nM
B6: equine IgG7 K311Y mutant (antibody, part only; not given: variable domains, not shown: another chain or arm of the molecule)
constant: B1 constant with R190Y

Kd: 14.4 nM
B7: equine IgG7 A426C mutant (antibody, part only; not given: variable domains, not shown: another chain or arm of the molecule)
constant: B1 constant with R190K, A307C

Kd: 13.4 nM
B9: equine IgG7 A426E mutant (antibody, part only; not given: variable domains, not shown: another chain or arm of the molecule)
constant: B1 constant with R190K, A307E

Kd: 13.6 nM
B11: equine IgG7 A426G mutant (antibody, part only; not given: variable domains, not shown: another chain or arm of the molecule)
constant: B1 constant with R190K, A307G

Kd: 18.4 nM
B12: equine IgG7 A426H mutant (antibody, part only; not given: variable domains, not shown: another chain or arm of the molecule)
constant: B1 constant with R190K, A307H

Kd: 15.8 nM
B17: equine IgG7 A426N mutant (antibody, part only; not given: Variable domains, not shown: another chain or arm of the molecule)
constant: B1 constant with R190K, A307N

Kd: 35 nM
B20: equine IgG7 A426R mutant (antibody, part only; not given: Variable domains, not shown: another chain or arm of the molecule)
constant: B1 constant with R190K, A307R
